Assays:
Sm (sphingomyelin) [1] = experiment: AtheNA Multi-Lyte ANA, Ab at 25 ug/ml
centromere B (CentB) [2] = target: centromere B (CentB) (UniProt P07199); experiment: AtheNA Multi-Lyte ANA, Ab at 25 ug/ml
[3] = target: histidine-tRNA ligase (Jo-1) (UniProt P12081); experiment: AtheNA Multi-Lyte ANA, Ab at 25 ug/ml
histones [4] = experiment: AtheNA Multi-Lyte ANA, Ab at 25 ug/ml
ribonucleoprotein (RNP) [5] = experiment: AtheNA Multi-Lyte ANA, Ab at 25 ug/ml
[6] = target: sclerosis autoantigen (Scl-70) (UniProt P11387); experiment: AtheNA Multi-Lyte ANA, Ab at 25 ug/ml
Sequence of sclerosis autoantigen (Scl-70) (P11387 2-765 limits assumed): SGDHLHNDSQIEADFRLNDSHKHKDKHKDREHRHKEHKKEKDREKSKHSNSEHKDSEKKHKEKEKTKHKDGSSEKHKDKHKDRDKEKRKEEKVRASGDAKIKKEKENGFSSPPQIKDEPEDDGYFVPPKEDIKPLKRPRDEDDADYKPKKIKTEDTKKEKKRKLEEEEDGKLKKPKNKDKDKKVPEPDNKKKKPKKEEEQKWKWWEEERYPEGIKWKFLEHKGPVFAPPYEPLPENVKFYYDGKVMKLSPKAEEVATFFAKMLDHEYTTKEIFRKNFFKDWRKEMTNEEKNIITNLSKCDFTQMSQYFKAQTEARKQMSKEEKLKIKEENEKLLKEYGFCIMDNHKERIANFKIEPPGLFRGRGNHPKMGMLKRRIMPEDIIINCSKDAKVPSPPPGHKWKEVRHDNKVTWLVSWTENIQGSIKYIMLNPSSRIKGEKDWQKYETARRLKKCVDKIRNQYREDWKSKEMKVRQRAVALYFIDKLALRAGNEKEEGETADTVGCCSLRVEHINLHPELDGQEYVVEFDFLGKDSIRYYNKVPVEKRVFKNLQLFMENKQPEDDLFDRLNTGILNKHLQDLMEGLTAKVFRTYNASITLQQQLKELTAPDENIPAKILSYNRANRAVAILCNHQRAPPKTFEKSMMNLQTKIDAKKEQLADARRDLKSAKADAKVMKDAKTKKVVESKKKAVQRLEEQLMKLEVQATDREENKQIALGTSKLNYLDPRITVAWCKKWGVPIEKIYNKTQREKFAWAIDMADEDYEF

[7] = target: systemic lupus erythematosus autoantigen SSA; experiment: AtheNA Multi-Lyte ANA, Ab at 25 ug/ml
[8] = target: systemic lupus erythematosus autoantigen SSB (UniProt P05455); experiment: AtheNA Multi-Lyte ANA, Ab at 25 ug/ml
Sequence of systemic lupus erythematosus autoantigen SSB (P05455 whole entry): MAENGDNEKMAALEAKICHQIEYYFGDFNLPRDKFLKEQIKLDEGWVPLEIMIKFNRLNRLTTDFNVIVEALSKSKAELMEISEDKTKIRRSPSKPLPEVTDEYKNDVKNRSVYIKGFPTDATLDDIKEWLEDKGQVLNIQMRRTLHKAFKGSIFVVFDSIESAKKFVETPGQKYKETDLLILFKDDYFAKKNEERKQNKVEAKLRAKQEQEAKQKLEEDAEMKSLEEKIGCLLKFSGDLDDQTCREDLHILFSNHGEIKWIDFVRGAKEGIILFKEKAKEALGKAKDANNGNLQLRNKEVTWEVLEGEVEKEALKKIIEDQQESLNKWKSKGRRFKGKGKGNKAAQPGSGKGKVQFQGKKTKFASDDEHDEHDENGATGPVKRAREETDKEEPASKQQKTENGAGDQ

Sm (sphingomyelin) [9] = experiment: AtheNA Multi-Lyte ANA, Ab at 50 ug/ml
centromere B (CentB) [10] = target: centromere B (CentB) (UniProt P07199); experiment: AtheNA Multi-Lyte ANA, Ab at 50 ug/ml
[11] = target: histidine-tRNA ligase (Jo-1) (UniProt P12081); experiment: AtheNA Multi-Lyte ANA, Ab at 50 ug/ml
histones [12] = experiment: AtheNA Multi-Lyte ANA, Ab at 50 ug/ml
ribonucleoprotein (RNP) [13] = experiment: AtheNA Multi-Lyte ANA, Ab at 50 ug/ml
[14] = target: sclerosis autoantigen (Scl-70) (UniProt P11387); experiment: AtheNA Multi-Lyte ANA, Ab at 50 ug/ml
[15] = target: systemic lupus erythematosus autoantigen SSA; experiment: AtheNA Multi-Lyte ANA, Ab at 50 ug/ml
[16] = target: systemic lupus erythematosus autoantigen SSB (UniProt P05455); experiment: AtheNA Multi-Lyte ANA, Ab at 50 ug/ml

Sequence of centromere B (CentB) (P07199 2-599): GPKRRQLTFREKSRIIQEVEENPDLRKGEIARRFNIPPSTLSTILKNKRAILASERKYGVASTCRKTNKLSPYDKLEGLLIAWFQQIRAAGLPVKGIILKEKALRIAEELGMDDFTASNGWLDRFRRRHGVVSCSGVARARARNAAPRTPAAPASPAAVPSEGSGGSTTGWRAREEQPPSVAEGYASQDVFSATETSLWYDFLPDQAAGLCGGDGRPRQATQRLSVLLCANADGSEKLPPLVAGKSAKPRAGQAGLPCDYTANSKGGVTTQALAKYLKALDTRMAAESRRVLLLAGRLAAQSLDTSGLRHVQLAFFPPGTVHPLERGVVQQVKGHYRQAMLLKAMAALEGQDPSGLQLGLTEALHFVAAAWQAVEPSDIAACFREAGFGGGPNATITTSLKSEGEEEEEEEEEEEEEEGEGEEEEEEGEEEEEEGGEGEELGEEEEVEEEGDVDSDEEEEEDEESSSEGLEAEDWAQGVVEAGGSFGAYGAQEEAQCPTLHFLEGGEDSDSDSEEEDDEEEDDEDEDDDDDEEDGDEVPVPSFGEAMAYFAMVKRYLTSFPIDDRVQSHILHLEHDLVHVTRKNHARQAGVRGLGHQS
Sequence of histidine-tRNA ligase (Jo-1) (P12081 2-509): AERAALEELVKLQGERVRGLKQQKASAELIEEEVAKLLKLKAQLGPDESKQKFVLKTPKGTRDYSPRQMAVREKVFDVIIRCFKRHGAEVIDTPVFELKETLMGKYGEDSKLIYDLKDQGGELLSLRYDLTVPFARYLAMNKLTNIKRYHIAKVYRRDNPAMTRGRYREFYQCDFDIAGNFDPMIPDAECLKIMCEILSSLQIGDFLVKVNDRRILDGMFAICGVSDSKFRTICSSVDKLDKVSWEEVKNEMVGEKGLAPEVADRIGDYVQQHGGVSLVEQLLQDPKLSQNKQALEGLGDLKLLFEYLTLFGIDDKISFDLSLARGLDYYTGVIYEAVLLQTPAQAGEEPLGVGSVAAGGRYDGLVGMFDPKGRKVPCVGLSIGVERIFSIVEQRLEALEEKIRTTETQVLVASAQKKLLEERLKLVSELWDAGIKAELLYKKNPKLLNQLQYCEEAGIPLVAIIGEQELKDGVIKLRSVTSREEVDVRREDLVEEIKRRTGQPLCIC

## 4e10 (Anti HIV, NIH AIDS Reagent Program) (antibody)
Sm (sphingomyelin) [1]
  AtheNA signal: 7
Centromere B (CentB) [2]
  AtheNA signal: 7
[3]
  AtheNA signal: 124
Histones [4]
  AtheNA signal: 15
Ribonucleoprotein (RNP) [5]
  AtheNA signal: 13
[6]
  AtheNA signal: 3
[7]
  AtheNA signal: 75
[8]
  AtheNA signal: 157
Sm (sphingomyelin) [9]
  AtheNA signal: 11
Centromere B (CentB) [10]
  AtheNA signal: 12
[11]
  AtheNA signal: 149
Histones [12]
  AtheNA signal: 20
Ribonucleoprotein (RNP) [13]
  AtheNA signal: 18
[14]
  AtheNA signal: 3
[15]
  AtheNA signal: 92
[16]
  AtheNA signal: 184

## SYNAGIS (anti-RSV monoclonal antibody palivizumab)
Sm (sphingomyelin) [1]
  AtheNA signal: 2
Centromere B (CentB) [2]
  AtheNA signal: 1
[3]
  AtheNA signal: 1
Histones [4]
  AtheNA signal: 1
Ribonucleoprotein (RNP) [5]
  AtheNA signal: 3
[6]
  AtheNA signal: 2
[7]
  AtheNA signal: 2
[8]
  AtheNA signal: 6
Sm (sphingomyelin) [9]
  AtheNA signal: 4
Centromere B (CentB) [10]
  AtheNA signal: 1
[11]
  AtheNA signal: 1
Histones [12]
  AtheNA signal: 2
Ribonucleoprotein (RNP) [13]
  AtheNA signal: 1
[14]
  AtheNA signal: 1
[15]
  AtheNA signal: 0
[16]
  AtheNA signal: 5
